Experimental data: patent US20240287172A1 (SCIRHOM, published 2024)

T1: hiR1-FL-WT-T7 (human, UniProt Q96CC6 1-855)
T1 construct: on MEF-DKO cells
T1 sequence: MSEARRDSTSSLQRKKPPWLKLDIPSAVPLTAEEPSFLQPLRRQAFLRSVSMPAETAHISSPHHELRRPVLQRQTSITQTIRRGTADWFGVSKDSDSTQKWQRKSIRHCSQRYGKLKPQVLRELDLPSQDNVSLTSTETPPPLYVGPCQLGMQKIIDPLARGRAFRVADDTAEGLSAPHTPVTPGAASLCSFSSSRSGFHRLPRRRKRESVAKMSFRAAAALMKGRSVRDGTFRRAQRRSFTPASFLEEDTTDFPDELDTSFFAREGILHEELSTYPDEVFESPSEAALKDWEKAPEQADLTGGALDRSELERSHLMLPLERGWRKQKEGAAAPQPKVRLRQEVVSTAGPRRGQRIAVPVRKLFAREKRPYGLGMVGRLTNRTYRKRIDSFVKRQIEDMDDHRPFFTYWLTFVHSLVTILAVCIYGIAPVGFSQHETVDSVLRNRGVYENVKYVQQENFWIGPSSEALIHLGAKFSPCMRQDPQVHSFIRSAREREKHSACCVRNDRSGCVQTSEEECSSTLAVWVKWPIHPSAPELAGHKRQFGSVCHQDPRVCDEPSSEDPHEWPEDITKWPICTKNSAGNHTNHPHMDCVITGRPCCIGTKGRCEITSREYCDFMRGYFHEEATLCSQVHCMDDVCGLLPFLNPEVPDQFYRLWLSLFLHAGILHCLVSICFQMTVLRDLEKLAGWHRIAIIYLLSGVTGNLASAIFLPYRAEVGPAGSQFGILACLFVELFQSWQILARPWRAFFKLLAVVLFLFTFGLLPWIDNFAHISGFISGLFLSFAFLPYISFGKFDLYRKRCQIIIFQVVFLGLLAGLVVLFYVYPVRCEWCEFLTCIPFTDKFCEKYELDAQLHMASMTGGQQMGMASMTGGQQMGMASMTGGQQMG

B1: antibody 5 (antibody, V domains shown)
VH: QVTLKESGPGILQPSQTLSLTCSFSGFSLSTFGMGVGWIRQPSGKGLEWLAHIWWDDEKYYNSALKSRLTISKATSKNQAFLKIANVDTADTATYYCARISNYGSNYWYFNVWGTGTTVTVSS
VL: QVVLTQSPALMSASPGEKVTMTCSAGSSVSCMYWYQQKPGSSPRVLIYDTSNLASGVPARFTGSGSGTSYSLTISRMEAEDAASYYCQQWNSYPLTFGAGTKLELK
notes: mouse IgG, kappa light chain; also called clone #5; purified antibody 5
B2: antibody 42 (antibody, V domains shown)
VH: QVTLKESGPGILQPSQTLSLTCSLSGFSLSTFGRGVGWIRQPSGKGLEWLAHIWWDDEKYYNPALKSRLTISKDTSKNQVFLRIANVDTADTATYYCARIQNYGSNYWYFDVWGTGTTVTVSS
VL: LIVLTQSPAIMSASPGEKVTMTCGATSRISYMFWYQQKPGSSPRVLIYDTSNLASGVPVRFSGSGSGTSYSLTISRVEAEDVATYYCQQWNSYPLTFGAGTKLELK
notes: mouse IgG, kappa light chain; also called clone #42; purified antibody 42
B3: antibody 44 (antibody, V domains shown)
VH: QVTLKESGPGILQPSQTLSLTCSFSGFSLSTFGMGVGWIRQPSEKGLEWLAHIWWDDDKYYNPALKSRLTISKDTSKNQIFLKITNVDTAETATYYCSRIGNYGSNYWYFDVWGTGTTVTVSS
VL: QIVLTQSPAVMSASPGEKVTMTCTASSSVYYMYWYQQTPGSSPRLLIYDTSNLASGVPVRFSGSGSGTSYSLTISRMEAEDAATYYCQQWNTYPLTFGAGTKLELK
notes: mouse IgG, kappa light chain; also called clone #44; purified antibody 44
B4: antibody 43 (antibody, V domains shown)
VH: QVALKESGPGILQPSQTLSLTCSFSGFSLSTFGMGVGWIRQSSGKGLEWLANIWWDDDKYYNPALKSRLTISKDASKNQAFLKIANVDTADTATYYCARIGNYGSNYWYFDVWGTGTTVTVSS
VL: QIVLTQSPAIMSASPGERVTMTCSANSRISYMYWYQQKPGSSPRLLIYDTSNLASGVPVRFSGSGSGTSYSLTISRMEAEDAATYNCQQWSSYPLTFGAGTKLELK
notes: mouse IgG, kappa light chain; also called clone #43; purified antibody 43
B5: antibody 22 (antibody, V domains shown)
VH: QVTLKESGPGILQPSQTLSLTCSFSGFSLSTFGMGVGWIRQPSGKGLEWLAHIWWDDEKYYNSALKSRLTISKATSKNQVFLKIANVDTADTATYYCARISNYGSNYWYFNVWGTGTTVTVSS
VL: QVVLTQSPALMSASPGEKVTMTCSAGSSVSYMYWYQQKPGSSPRVLIYDTSNLASGVPARFTGSGSGTSYSLTISRMEAEDAATYYCQQWNSYPLTFGAGTKLELK
notes: mouse IgG, kappa light chain; also called clone #22; purified antibody 22
B6: antibody 34 (antibody, V domains shown)
VH: QVTLKESGPGILQPSQTLSLTCSFSGFSLSTFSLGVGWIRQSSGKGLEWLAHIWWDDEKYYNPALKSRLTISKDTSKNQVFLKIANVDAADTATYYCARAYYSKSYYALDYWGQGTSVTVSS
VL: DIQMTQSPSSLSASLGERVSLTCRASQEISGYLSWLQQKPDGTIKRLIYAASTLDSGVPKRFSGSRSGSDYSLAISSLESEDFADYYCLQYANFPFTFGSGTKLEIK
notes: mouse IgG, kappa light chain; also called clone #34; purified antibody 34
B7: antibody 16 (antibody, V domains shown)
VH: QVTLKESGPGILQPSQTLSLTCSFSGFSLSTFALGVGWIRQPSGRGLEWLAHIWWDDDKYYNPALKSRLTISKDTSKNHVFLKIANVDTADTATYYCARITTYYYGMDYWGQGTSVTVSS
VL: DIVLSQSPATLSVTPGDSVSLFCRASQSIGNHLHWYQQESHASPRLLIKYASQSISGIPSRFSGSGSGTDFTLSINSVETEDFGMYFCQQSYNWPLTFGAGTKLELK
notes: mouse IgG, kappa light chain; also called clone #16; purified antibody 16
B8: antibody 3 (antibody, V domains shown)
VH: QVTLKESGPGILQPSQTLSLTCSFSGFSLTTFAMGIGWVRQPSGKGLEWLAHIWWDGEKYNNPVLKSRLTISKDTSKNQVFLRIANVDTPDTATYYCARISSIYYIIDNWGQGTSVTVSS
VL: DIVLTQSPATLSVTPGHSVSLSCRASQSISNNLHWYQKKSHESPRLLIKYVSQSISGIPSRFSGSGSGTDFTLSINSVETEDFGMYFCQQSYNWPLTFGAGTKLELK
notes: mouse IgG, kappa light chain; also called clone #3; purified antibody 3
B9: antibody 48 (antibody, V domains shown)
VH: QVQLQQSGTELVRPGTSVKVSCKASGYAFTNYLIEWVKQRPGQGLEWIGVINPGSGFTKYNEKFKGKATLTADKSSSTVYMHLSSLTSEDSAVYFCARGLYRAMDYWGQGTSVTVSS
VL: DIQMTQSPASQSASLGESVTITCLASQTIATWLAWYQQKPGKSPQLLIYGATTLADGVPSRFSGGGSGTKFSFKISSLQAEDFVSYYCQQLYSTPYTFGGGTKLEIK
notes: mouse IgG, kappa light chain; also called clone #48; purified antibody 48
B10: antibody 50 (antibody, V domains shown)
VH: QVQLQQSGAELVRPGASVKVSCKASGYAFSNYLIEWVKQRPGQGLEWIGVINPGSGFTKYNEKFKGKATLTADKSSSTAYMQLSSLTSEDSAVYFCARGLYRAMDYWGQGTSVTVSS
VL: DIQMTQSPASQSASLGESVTITCLASQTIGTWLAWYQQKPGKSPQLLIYAAASLADGVPSRFSGGGSGTKFSFKISSLQAEDFVNYYCQQIYSTPYTFGGGTKLEIK
notes: mouse IgG, kappa light chain; also called clone #50; purified antibody 50

Molecular target: T1, hiR1-FL-WT-T7
Assay: FACS, MEF-DKO cells, 3 µg/ml

Binder | loss of binding vs wild type [%]
B1 | ≥ 95
B2 | ≥ 95
B3 | ≥ 95
B4 | ≥ 95
B5 | ≥ 95
B6 | ≥ 95
B7 | ≥ 95
B8 | ≥ 95
B9 | ≥ 60
B10 | ≥ 95
